# The DeepSol protein solubility set
# Assay: soluble on expression in E. coli; label from the status in PepcDB or PDB records
row,Sequence,soluble on expression in E. coli
1,EMFYFEPVNIKKYLGSIGSELSDEVITIEQFFNLNSEYITIIDARSPREFSEKTISNAVNIPLFLTEEYETIGKLYKHEGKEVAIAKAGIIIQDGIKRIVSESLKLDPNKNLVVFCARGGMRSQSIATILKLLGFKVKRLVGGFKSYNISKT,not soluble
2,MIRLVIVEPEGSYNLGFISRLAKNFLVDELYIVNPHCDLEEAKKFSAKGLEYLEKAKIVNNFDEAIKDVELKIATSSIADIKGDILRKSIRPWELPRIIEGKKVALIFGRESVGLTREEIAKSDLLLFIPGNPEYPVLNLSHAVGIVLYEIWKSRGENKPVISGEAISLIDKYSRDLVNLIKSNEGDEAMYIALKRALIKGIGDEEEARTIIRLLRKLYIKLTRKIE,soluble
3,MSLKITNEMQTKAETKIHRTTKVGDPSFQQMVQSQTKQLNQQQFHQLVQQISKQGSKLAQYRSFRELVKFKRMVKSFLDKAVVQGYKLEKSHSFGLQGSRHLSIVKAVDEKLIQLAEDIMDEEKKTVDILGLIGEIKGLLINIYTEGHHHHHH,soluble
4,MISNKRRPKIKIWNKEQMALYLKAIKKDRLYAAFVTDSKSGLRKSELLALRWSDIDFSTGLTKIERGWVRSPKGTLYLSDLKSENSERTLVFSTDLLKVLLEHKSRQDEEKKTAGKNYIDNGLVFCREDGSYINPSTFTRRHYDLTAKAKLPRISVHALRHSISTALLESGKVDLKQIQEMLGHKDISTTGNYYTDVLERMKQKTSELIDNLIQTELEHHHHHH,not soluble
5,MGSDKIHHHHHHQIAPAPSTGYNCDLALYSVPQANLLARSLQGDTVADQQYRQLVRELAMELRNCRQQVWPRKMAIWVRLYSCDLRPGGLDSLFDGLQALGYNEVFIETFYDGRVLLPAADNPTVWPSVVAEPGLERVDLLAEAIRKGRERGMSVYAWLFTLNYGYSYSQRSDRQDTLARNGRSESSLEIVSGGAQVFVDPFNPVARQDYQTLLRSVLSRRPDGVLFDYVRYPRGTGAASVMTKVADLLIHTTAARQAWINQLNTPAGQALLTEYLDTGRLSPSDRNQLVLLLGDRLKELNLRQDVDPLWSLAVYHAWRGVVEFVDEAVGTVAQAGLPSGAVFFPFGNARVGQQGWDSRMQPWDRFPNSMEYHPMSYALCGDRHDCVMAEVQRVLEAKPNSIVQPAIAGTWGANFNAHLPLEQRMAALRSTFGDRIDRVSHFSLAWMDPQGERQRQRCRL,not soluble
6,HSQRVIRELDEHGFWSAMIPQWEHIRGRMPRESVHIHTIDVHSMVVTANCATQSIRVARPDLLFLAALFHDIGKGYGRRHEEVGAEFVVDMATTLRLNPSDTQIVETLVAQHTIIPHIVGRYNPTSTEAIDKLLDAVNYDLLTLDLLEALVEADAQGTAPGVWSAVLRYGTRELCAQARQR,not soluble
7,MANLPSSSGMFSRLLANVFNTTVASRCSASGRWWPQPEYELSKHRSRAPSMGIHRRTRLNVVDNSALGKEADTTGKLPYCIHVYKQGRRAKHMPHAELGDKILVAIRGQMRKAYVVGANTHVHYRKHGVPVTDQNMIVLLDEEGNPLGNRITAPIPTKLMANRGNVQFSKVLALANKFI,soluble
8,MRVDRRTFLKATGAALGALALSGLPARAQGLEGEDLEHLEQALKEVFGKGFKDLTPSDAVKLNMPAIAESGANVPAEVEVALPKEQVKAIHLFADKNPTPHILAFMPMKAEPYYATRVRLAETTAIRAVVETQDGKLLLASASTRVTVGGCG,soluble
9,MRLERTFDPNDLSTQNMESPICLPIGFVHFLAQSQTLQQVLDTVAEWINRIFESDRTSITLYENSDYLKVYSFSGNKAIPADFLVPIDQAFVGRVFKNQQLIICDDVSQSDELDCVMLTSSGMGTCMDAPLMHGQMCLGTLNVAHHQTHFYTKEQAAQLQCIANWIALNI,not soluble
10,MGSDKIHHHHHHMTRNGIGIRTAQVRSERLTGQIHVYDGVGKGKSQAALGVVLRSIGLGINAPNNSNRVLLLRFLKGPERDYDEDGAIAALQRGFPHLIDQVRTGRAEFFGPEEITTFDRSEAGRGWDVAKGAIASGLYSVVVLDEINPVLDLGLLSVDEVVGTLKSKPQELEIIATGRGAPQKLLDIADLHSEMKPLHHPKATELLMKGIEIYTGAGKGKSTSALGKALQAIGRGINHPGSTRVLIMQWLKGGSGYTEDAAIAALRQSYPEVVDHQRCGRDAIVWRNSRQELDYVEAERGWEIAKVAIASGLYKTIILDELNPTVDLELLPVEPIVQALLRKPRDTEIIITGRCQNQPAYFDLASIHSEVYCHKHYANQGVELKRGVDF,not soluble
11,MTIPFDHWPEWPQHSDRTRRKIEEVFQSNRWAISGYWTGEESMERKFAKAFADFNGVPYCVPTTSGSTALMLALEALGIGEGDEVIVPSLTWIATATAVLNVNALPVFVDVEADTYCIDPQLIKSAITDKTKAIIPVHLFGSMANMDEINEIAQEHNLFVIEDCAQSHGSVWNNQRAGTIGDIGAFSCQQGKVLTAGEGGIIVTKNPRLFELIQQLRADSRVYCDDSSELMHGDMQLVKKGDIQGSNYCLSEFQSAILLDQLQELDDKNAIREKNAMFLNDALSKIDGIKVMKRPPQVSRQTYYGYVFRFDPVKFGGLNADQFCEILREKLNMGTFYLHPPYLPVHKNPLFCPWTKNRYLKSVRKTEAYWRGLHYPVSERASGQSIVIHHAILLAEPSHLSLLVDAVAELARKFCVTH,soluble
12,MRGPAPMPDTSLSTFLARPAPTILVEIEAVKGSSPREAGTFMLVSQEALWETIGGGQFEYMAIDHARAMLRTGAAEDRMDIPLGPEIGQCCGGRTLIRFRLITAEIAATLEARLKGEAEQQPAVFIFGAGHVGKALADALSLLPLTLKVVETRESELRDIPAGIASILTPMPEAFVQKIPANGAAIIVTHDHALDFLIAKEALARDDLAYVGMIGSKTKRATFAHWLEREGEPPSRLAKLTLPIGGTGVRDKRPAVIAALVAAELLQAFSVAETRRSENRHDHPQGQDRA,not soluble
13,MSWRYSILTVDGSFKIFIPWEIFLTWNFLSAAWLNSTESNTYIHYSTCWGTSDYTLNISVIEATTEKLVDTRLLTTLENATAWINSNSIDEDEDDMPHATNVADRLDGLSLSKRVYSICHYEF,not soluble
14,MQLSTLTALSPLDGRYQDKVTPLRAIFSEFGLMKFRVAVEVRWLQKLASTADITEVPPFSTQANAFLDGIVANFNEADAARIKEIERTTNHDVKAVEYFLKEKIQNEVELVKVSEFIHFACTSEDINNLSHALMLSTARDEVILPEWQKLIDEITRLAEEYKTIPLLSRTHGQPASPSTVGKEMANVVYRLKRQFKQLQNAEILGKINGAVGNYNAHLSAYPNIDWHKFSEEFVTSLGIQWNPYTTQIEPHDYITEFFDAVVRFNTIIIDFDRDLWGYIALNHFKQRTIAGEIGSSTMPHKVNPIDFENSEGNLGLANAVMTHLGQKLPISRWQRDLTDSTVLRNLGVGLGYCLIAYASTRKGISKLEVNQPHLLEELNQNWEVLAEPIQTVMRRYGIEKPYEKLKELTRGKRVTEQAMREFIDKLDIPQEEKLRLQKLTPATYIGAAVELVEKLS,not soluble
15,MAHHHHHHMLQPFQLLQSLVSPIVGVSAKVTVGNQAKDDFLLKTLAIDKKKLDPSYFEKYDNLKWEGKIIAIGDIHGDMESLKLILRHANLINENDEWIAENVLLVQVGDVLDRGIYGPLIYNYLFKLQKEAPLKKSKVLLIMGNHEQLNMCGYFNYVNQKEVEIFFKNNFNYRLFHFVSTAGEYFKKLIRLPVIAKVNDILFVHAGISKQISSLSLQTIRLKTRLQIENMCKILSYDKSRDYVNREGVLWYDHVSRTAPYDEKQACAILSHVFNKYGAKHLVVGHTKQMTHEISTYCNGGLFLIDTGMSLFMNNGQPYPNYLVAENGIFKSVHLNVEVNKKSKYCDSLEIELRSPNKQSFCIHAKETLLSPPNGG,not soluble
16,MIIFSGGTGTPKLLDGLKEILPEEELTVVVNTAEDLWVSGNLISPDLDTVLYLFSDQIDRKRWWGIENDTFGTYERMKELGIEEGLKLGDRDRATHIIRSNIIRDGASLTDSTVKLSSLFGIKANILPMSDDPVSTYIETAEGIMHFQDFWIGKRGEPDVRGVDIRGVSEASISPKVLEAFEKEENILIGPSNPITSIGPIISLPGMRELLKKKKVVAVSPIIGNAPVSGPAGKLMPACGIEVSSMGVAEYYQDFLDVFVFDERDRADEFAFERLGCHASRADTLMTSTEKSKELAEIVVQAFLEHHHHHH,soluble
17,MNCEKCNQNPATIQLYMNINGKRVEMPLCASCYAEVRNQANFGSNEFPGASGSPFDDIFRQLSGAANQANREQRSQANAQVQTQTAGGGNGILDEFGTNLTDMAKNEQLDPVIGRDKEIKRVIEILNRRNKNNPVLIGEPGVGKTAVVEGLANAIVAGDVPSKLMNKEVILLDVASLVSGTGIRGQFEERMKQLIKELQERKNTILFIDEVHTIVGAGSAEGSMDAGNILKPALARGDLQMIGATTLKEYRTIEKDAALERRFQPVTVSEPSTKETLTILNGLKPKYEDFHEVVYSPEALTAAVELSARYIQDRHLPDKAIDLMDEVGSKYNLSIEKLDENTVSERVARLEDEKNQALQMEDYEKAAKVRDEITRLEENKTSNSFSERPVIQASDIQAIIEEKTGIPVGRLQEDEQSKMKNLERNLTGKVIGQEDAVKKVAKAIRRSRVGLKSKNRPIGSFLFVGPTGVGKTELGRTLARELFGTSEAMIRLDMSEFMEKHSISKLIGSPPGYVGHEEAGQLTEKVRRNPYSIILLDEIEKAHPDVQHMFLQILEDGRLTDSQGRTVSFKDTVIIMTSNAGATDTEASVGFNTTTETKLEKGSDILAKLGAYFKPEFLNRLDSVIEFKSLEKDDLVQIIDLMLVDLNEMLAQEGVTIDVSKEVKEHLIDLGYDPKFGARPLRRTIQEHLEDTIADSLIDQPEAKNLVATLNDNKEITITEQVTA,not soluble
18,MAKITVGTENQAPIEIYYEDHGTGKPVVLIHGWPLSGRSWEYQVPALVEAGYRVITYDRRGFGKSSQPWEGYEYDTFTSDLHQLLEQLELQNVTLVGFSMGGGEVARYISTYGTDRIEKVVFAGAVPPYLYKSEDHPEGALDDATIETFKSGVINDRLAFLDEFTKGFFAAGDRTDLVSESFRLYNWDIAAGASPKGTLDCITAFSKTDFRKDLEKFNIPTLIIHGDSDATVPFEYSGKLTHEAIPNSKVALIKGGPHGLNATHAKEFNEALLLFLKD,not soluble
19,MSTPPAAPLRIALVGDHDPHITAHRAIPLALRLAGEALGLEIAFDWLASDRLPAEPALERYDGFWCVPGSPYRDADAVLRLIAHARGRRRPFLGTCAGFQHTILEFARNALGWQAATHGEEHPHSDQAVIAALPCALLEAREDVRLLRGSRLALAYAADWIEADYHCRYAIAPRFAAELTGGALRASAWSADGAIRAVELEQHPFFVATLFQPERAALAGVLPPLPKAFVEACRTQRRDHPRRGPTPYYAVIFSSHRSAVDDGYAEAAERMLELASRQPGYLGVESVRGANGFGITVSYWDSEAAIRAWSRHAEHRDAQARGRHDWYAGFSARIARVEREYAFPAQPDTAQSPASS,not soluble
20,MRKISEMPKFERPREKLLERGVGYLSDLELLAVLIGNGTKDCSVMNVAGKVLKLLDKGCDRVSARVLQEIEGVGPAKSAVIAAALEFARRRIRPEGIKITSACDILPLISYLANRKQEHFVCVSLNGASEVIATRVVSVGLVNNVQVHPREVFADPITDRATAVIVAHNHPSGSVAPSQEDIEVTKRLKDAGNTLGIKLIDHIIFSRKGYFSFLENGQMPD,soluble
